Measurements reported in patent publication US9562084B2, “Peptides derived from NCAPG2 and their use” (NATIONAL CANCER CENTER, priority 2014, dated 2017).

Biological target: T1, PLK1 (Homo sapiens, UniProt P53350)
T1 construct: expressed in transfected cells
Assay: Pull down assay / immunoprecipitation of Flag-tagged NCAPG2 mutants with GST-tagged PLK1
Format: binding
Source text: The NCAPG2 expression vectors were constructed using pcDNA3.1, pCMV-3FLAG-1, and pLL3.7 vectors with KpnI/XhoI, EcoRV/XhoI, and SmaI/XhoI restriction enzyme sites, respectively. To produce siRNA-resistant NCAPG2 mutants (Lenti-NCAPG2^R), the mutants (forward primer: 5′ GAAGACTACCTGAAGCTTCACAGA GTGATT TATCAGCAAATTATCCAGACCTACCTG-3′ (SEQ ID NO: 3), reverse primer: 5′-CAGGTAGGTCTGGATAATTTGCTGATAAATCACTCTGTGAAGCTTCAGGTAGTCTTCTTC-3′ (SEQ ID NO: 4)) were generated using a QuikChange Site-Directed Mutagenesis Kit (Stratagene). […]
For the detection of proteins using the immunoblottings, subjects were protein complexes from immunoprecipitation or whole cell lysates harvested from indicated conditions. […] Protein concentration was determined using BCA™ protein assay kit (Pierce, Rockford, USA). […] Protein expressions detected chemiluminescent signals activated by SuperSignal West Pico Chemiluminescent Substrate (Pierce Rockford, Ill., USA) reacted with horse radish peroxidase tagged secondary antibodies (Jackson ImmunoResearch Laboratories, Inc., West Grove, USA).

T1 sequence (P53350 whole entry): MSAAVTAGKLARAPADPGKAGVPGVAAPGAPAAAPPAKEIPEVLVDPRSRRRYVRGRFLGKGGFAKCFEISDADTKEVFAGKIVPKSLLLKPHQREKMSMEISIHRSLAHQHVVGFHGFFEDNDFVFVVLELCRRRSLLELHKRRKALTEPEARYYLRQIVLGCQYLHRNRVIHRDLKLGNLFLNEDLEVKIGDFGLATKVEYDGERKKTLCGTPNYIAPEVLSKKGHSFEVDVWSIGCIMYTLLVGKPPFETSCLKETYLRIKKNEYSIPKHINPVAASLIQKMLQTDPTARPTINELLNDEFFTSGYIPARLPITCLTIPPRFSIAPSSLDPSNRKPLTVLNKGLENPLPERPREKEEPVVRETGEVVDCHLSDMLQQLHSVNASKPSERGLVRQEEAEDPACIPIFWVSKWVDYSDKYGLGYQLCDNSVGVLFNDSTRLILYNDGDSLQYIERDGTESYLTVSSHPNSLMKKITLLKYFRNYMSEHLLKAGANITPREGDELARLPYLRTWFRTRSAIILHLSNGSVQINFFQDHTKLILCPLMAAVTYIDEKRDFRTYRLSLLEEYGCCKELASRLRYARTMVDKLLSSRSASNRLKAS

B1: T805A: NCAPG2 mutant which substituted threonine with alanine at the residue number 805 of SEQ ID NO: 7 (protein, listed as Homo sapiens)
chain: MEKRETFVQAVSKELVGEFLQFVQLDKEASDPFSLNELLDELSRKQKEELWQRLKNLLTDVLLESPVDGWQVVEAQGEDNMETEHGSKMRKSIEIIYAITSVILASVSVINESENYEALLECVIILNGILYALPESERKLQSSIQDLCVTWWEKGLPAKEDTGKTAFVMLLRRSLETKTGADVCRLWRIHQALYCFDYDLEESGEIKDMLLECFININYIKKEEGRRFLSCLFNWNINFIKMIHGTIKNQLQGLQKSLMVYIAEIYFRAWKKASGKILEAIENDCIQDFMFHGIHLPRRSPVHSKVREVLSYFHHQKKVRQGVEEMLYRLYKPILWRGLKARNSEVRSNAALLFVEAFPIRDPNLHAIEMDSEIQKQFEELYSLLEDPYPMVRSTGILGVCKITSKYWEMMPPTILIDLLKKVTGELAFDTSSADVRCSVFKCLPMILDNKLSHPLLEQLLPALRYSLHDNSEKVRVAFVDMLLKIKAVRAAKFWKICPMEHILVRLETDSRPVSRRLVSLIFNSFLPVNQPEEVWCERCVTLVQMNHAAARRFYQYAHEHTACTNIAKLIHVIRHCLNACIQRAVREPPEDEEEEDGREKENVTVLDKTLSVNDVACMAGLLEIIVILWKSIDRSMENNKEAKLYTINKFASVLPEYLKVFKDDRCKIPLFMLMSFMPASAVPPFSCGVISTLRSREEGAVDKSYCTLLDCLCSWGQVGHILELVDNWLPTEHAQAKSNTASKGRVQIHDTRPVKPELALVYIEYLLTHPKNRECLLSAPRKKLNHLLKALETSKADLESLLQAPGGKPRGFSEAAAPRAFGLHCRLSIHLQHKFCSEGKVYLSMLEDTGFWLESKILSFIQDQEEDYLKLHRVIYQQIIQTYLTVCKDVVMVGLGDHQFQMQLLQRSLGIMQTVKGFFYVSLLLDILKEITGSSLIQKTDSDEEVAMLLDTVQKVFQKMLECIARSFRKQPEEGLRLLYSVQRPLHEFITAVQSRHTDTPVHRGVLSTLIAGPVVEISHQLRKVSDVEELTPPEHLSDLPPFSRCLIGIIIKSSNVVRSFLDELKACVASNDIEGIVCLTAAVHIILVINAGKHKSSKVREVAATVHRKLKTFMEITLEEDSIERFLYESSSRTLGELLNS
binding of NCAPG2 mutant to PLK1: inhibited
